Experimental data taken from US20220324953A1 (JIANGSU HENGRUI MEDICINE, published 2022).
Changes are numbered by the printed parent chain.

T1: human CTGF protein (R&D, Cat No. 9190-CC) (human, UniProt P29279 27-349)
T1 construct: Bought protein; also called CTGF recombinant protein; CTGF (R&D)
T1 sequence: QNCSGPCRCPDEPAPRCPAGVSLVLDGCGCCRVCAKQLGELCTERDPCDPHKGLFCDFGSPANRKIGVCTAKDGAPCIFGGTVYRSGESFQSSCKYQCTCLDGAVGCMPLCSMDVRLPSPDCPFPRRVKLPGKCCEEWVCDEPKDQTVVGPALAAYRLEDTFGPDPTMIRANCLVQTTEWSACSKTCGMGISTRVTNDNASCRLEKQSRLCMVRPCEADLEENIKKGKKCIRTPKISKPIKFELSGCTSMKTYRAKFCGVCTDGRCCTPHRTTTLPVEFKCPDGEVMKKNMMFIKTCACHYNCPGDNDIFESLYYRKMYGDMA

T2: human CTGF (antigen of the Biacore assays) (human, UniProt P29279 27-349)
T2 construct: also called antigen human CTGF; human CTGF protein
T2 sequence (looked up): T1 sequence with D57H

B1: positive control CTGF antibody mAb1 (antibody, V domains shown)
VH: EGQLVQSGGGLVHPGGSLRLSCAGSGFTFSSYGMHWVRQAPGKGLEWVSGIGTGGGTYSTDSVKGRFTISRDNAKNSLYLQMNSLRAEDMAVYYCARGDYYGSGSFFDCWGQGTLVTVSS
VL: DIQMTQSPSSLSASVGDRVTITCRASQGISSWLAWYQQKPEKAPKSLIYAASSLQSGVPSRFSGSGSGTDFTLTISSLQPEDFATYYCQQYNSYPPTFGQGTKLEIKR
notes: Positive control, from CN1829740B; also called pamrevlumab; FG-3019
B2: Hu147-22wk (antibody, human IgG1, kappa, V domains shown)
VH: EVQLVESGGGLVQPGGSLRLSCAASGFTFNTYAMNWVRQAPGKGLEWVARIRTKSNNYATYYADSVKDRFTISRDDSKNSLYLQMNSLKTEDTAVYYCVETGFAYWDQGTLVTVSS
VL: EIVLTQSPATLSLSPGERATLSCSASSSVSYMHWFQQKPGQSPKLLIYSTSNLASGIPARFSGSGSGTDYTLTISSLEPEDFAVYYCQQRSSYPLTFGQGTKLEIKR
B3: Hu147-12wk (antibody, human IgG1, kappa, V domains shown)
VH: B2 VH with N30S, A49G
VL: B2 VL
B4: Hu147-14wk (antibody, human IgG1, kappa, V domains shown)
VH: B2 VH with N30S, A49G
VL: DIQMTQSPSSLSASVGDRVTITCSASSSVSYMHWFQQKPGKSPKLLIYSTSNLASGVPSRFSGSGSGTDYTLTISSLQPEDFATYYCQQRSSYPLTFGQGTKLEIKR
B5: Hu147-33wk (antibody, human IgG1, kappa, V domains shown)
VH: B2 VH with T28S, K78E, N79S
VL: B2 VL with L46W, I57V
B6: Hu147-15wk (antibody, human IgG1, kappa, V domains shown)
VH: B2 VH with N30S, A49G
VL: B4 VL with M4L, L46W
B7: Hu147-32wk (antibody, human IgG1, kappa, V domains shown)
VH: B2 VH with T28S, K78E, N79S
VL: B2 VL
B8: Hu147-21wk (antibody, human IgG1, kappa, V domains shown)
VH: B2 VH
VL: B2 VL with K44R
B9: Hu147-11wk (antibody, human IgG1, kappa, V domains shown)
VH: B2 VH with N30S, A49G
VL: B2 VL with K44R
B10: Hu147-24wk (antibody, human IgG1, kappa, V domains shown)
VH: B2 VH
VL: B4 VL
B11: Hu147-13wk (antibody, human IgG1, kappa, V domains shown)
VH: B2 VH with N30S, A49G
VL: B2 VL with L46W, I57V
B12: Hu147-31wk (antibody, human IgG1, kappa, V domains shown)
VH: B2 VH with T28S, K78E, N79S
VL: B2 VL with K44R
B13: Hu147-34wk (antibody, human IgG1, kappa, V domains shown)
VH: B2 VH with T28S, K78E, N79S
VL: B4 VL
B14: Hu147-23wk (antibody, human IgG1, kappa, V domains shown)
VH: B2 VH
VL: B2 VL with L46W, I57V
B15: Hu164-67wl (antibody, human IgG1, lambda)
heavy: not shown
light: ETVVTQEPSLTVSPGGTVTLTCRSSIGAVTTSNYANWVQQKPGQAFRGLIGGTSNRAPWTPARFSGSLLGGKAALTLSGVQPEDEAEYYCALWYSTHYVFGGGTKLTVLGQPKANPTVTLFPPSSEELQANKATLVCLISDFYPGAVTVAWKADGSPVKAGVETTKPSKQSNNKYAASSYLSLTPEQWKSHRSYSCQVTHEGSTVEKTVAPTEC
B16: Hu164-77wl (antibody, human IgG1, lambda, V domains shown)
VH: EVQLQESGPGLVKPSQTLSLTCTVSGFSISTFGVHWIRQHPGKGLEWIGVIWRRGGTDYNAAFMSRVTISKDTSKNQVSLKLSSVTAADTAVYYCARDGGFDYWGQGTTVTVSS
VL: ETVVTQEPSLTVSPGGTVTLTCRSSIGAVTTSNYANWVQQKPGQAFRGLIGGTSNRAPWTPARFSGSLLGGKAALTLSGVQPEDEAEYYCALWYSTHYVFGGGTKLTVLG
B17: Hu164-87wl (antibody, human IgG1, lambda, V domains shown)
VH: B16 VH with I48L, V67L, L80F
VL: B16 VL
B18: Hu164-68wl (antibody, human IgG1, lambda, V domains shown)
VH: EVTLKESGPVLVKPTETLTLTCTVSGFSLSTFGVHWIRQPPGKGLEWLGVIWRRGGTDYNAAFMSRLTISKDTSKSQVVFTMTNMDPVDTATYYCARDGGFDYWGQGTTVTVSS
VL: ETVVTQEPSFSVSPGGTVTLTCRSSIGAVTTSNYANWVQQTPGQAFRGLIGGTSNRAPGVPDRFSGSILGNKAALTITGAQADDESDYYCALWYSTHYVFGGGTKLTVLG
B19: Hu164-69wl (antibody, human IgG1, lambda, V domains shown)
VH: B18 VH
VL: ESVVTQPPSVSGAPGQRVTISCRSSIGAVTTSNYANWVQQLPGTAFKGLIGGTSNRAPGVPDRFSGSKSGTSASLAITGLQAEDEADYYCALWYSTHYVFGGGTKLTVLG

The binders below were run against T1, human CTGF protein (R&D, Cat No. …) (assay: ELISA, plate coated with CTGF (R&D 9190-CC)).
Protocol: The binding activity of anti-human CTGF antibody to human CTGF protein was tested by ELISA assay and Biacore. A 96-well microtiter plate was directly coated with the CTGF recombinant protein. The signal strength upon the addition of the antibody was used to determine the binding activity of the antibody to CTGF. The specific experimental procedures were as follows:
The CTGF protein (R&D, Cat No. 9190-CC) was diluted with PBS, pH 7.4 (Shanghai Yuanpei, Cat No. B320) buffer to a concentration of 0.2 μg/ml, 50 μl/well of which was added into the 96-well microtiter plate (Corning, Cat No. CLS3590-100EA), and incubated in an incubator at 37° C. for 2 hours or at 4° C. overnight (16-18 hours). The liquid was removed, 250 μl/ well blocking solution (5% skim milk (BD skim milk, Cat No.232100) diluted in PBS) was added, and incubated in an incubator at 37° C. for 3 hours or at 4° C. overnight (16-18 hours) for blocking. After the blocking was finished, the blocking solution was removed, the plate was washed for 5 times with PBST buffer (PBS containing 0.1% Tween-20, pH 7.4), 50 μl/well of various concentrations of each of the test antibodies (antibodies purified from hybridoma or humanized antibodies) diluted with sample dilution solution were added, and incubated in an incubator at 37° C. for 1 hours. After the incubation was finished, the plate was washed for 3 times with PBST, 50 μl/well of HRP-labeled goat anti-mouse secondary antibody (Jackson Immuno Research, Cat No. 115-035-003) or goat anti-human secondary antibody (Jackson Immuno Research, Cat No. 109-035-003) diluted with sample dilution solution was added, and incubated at 37° C. for 1 hour. The plate was washed for 3 times with PBST, 50 μl/well of TMB chromogenic substrate (KPL, Cat No. 52-00-03) was added, incubated at room temperature for 5-10min, and 50 μl/well of 1 M H₂SO₄ was added to stop the reaction. The absorbance value was read by a microplate reader (Molecular Devices, VERSA max) at a wavelength of 450 nm, and the data was analyzed with GraphPad Prism 5. The binding of CTGF antibody to human CTGF protein was calculated as EC50 value.

| Binder | EC50 [nM] |
| --- | --- |
| B1 | 0.067 |
| B2 | 0.056 |
| B3 | 0.046 |
| B4 | 0.073 |
| B5 | 0.054 |
| B6 | 0.034 |
| B7 | 0.063 |
| B8 | 0.067 |
| B9 | 0.045 |
| B10 | 0.048 |
| B11 | 0.043 |
| B12 | 0.056 |
| B13 | 0.134 |
| B14 | 0.058 |
| B15 | 0.044 |
| B16 | 0.055 |
| B17 | 0.055 |
| B18 | 0.069 |
| B19 | 0.063 |

Each binder was assayed against T2, human CTGF (antigen of the Biacore …) (assay: Biacore, antibody captured on Protein A, CTGF in flow, 1:1 fit).
Source text: A certain amount of each of the test antibodies was affinity-captured with Protein A biosensor chip (Cat. # 29127556, GE), and then a certain concentration of human or mouse CTGF was allowed to flow through the surface of the chip. The reaction signals were detected in real time with Biacore instrument to generate a binding and dissociation curve. After the dissociation was completed in each cycle, the biosensor chip was washed and regenerated with Glycine-HCl regeneration solution pH 1.5 (Cat. # BR-1003-54, GE). The running buffer for the assay was 1×HBS-EP buffer solution (Cat. # BR-1001-88, GE).

| Binder | Kd [nM] | koff [s⁻¹] | kon [M⁻¹ s⁻¹] |
| --- | --- | --- | --- |
| B2 | 1.01 | 0.0142 | 1.4e+07 |
| B3 | 0.969 | 0.033 | 3.41e+07 |
| B4 | 1.13 | 0.0554 | 4.89e+07 |
| B5 | 0.713 | 0.0104 | 1.45e+07 |
| B7 | 0.91 | 0.0133 | 1.46e+07 |
| B8 | 0.974 | 0.0162 | 1.66e+07 |
| B9 | 1.13 | 0.0336 | 2.98e+07 |
| B11 | 0.808 | 0.024 | 2.97e+07 |
| B12 | 0.894 | 0.0159 | 1.78e+07 |
| B13 | 1.05 | 0.0155 | 1.47e+07 |
| B14 | 0.818 | 0.0112 | 1.37e+07 |
| B15 | 0.0379 | 0.00196 | 5.17e+07 |
| B16 | 0.343 | 0.0176 | 5.15e+07 |
| B17 | 0.194 | 0.0204 | 1.05e+08 |
| B18 | 0.302 | 0.0116 | 3.84e+07 |
| B19 | 0.322 | 0.028 | 8.71e+07 |
